Laboratory results taken from PMC12255305, “A transfer RNA methyltransferase with an unusual domain composition catalyzes 2′-O-methylation at position 6 in tRNA” (Nucleic Acids Research, 2025).
Numbering of substitutions follows the chain as printed. Numbers in names are those of the source.

B1: TrmTS (TK1257 gene product), full-length wild type (enzyme, Thermococcus kodakarensis, UniProt Q5JGM1 1-355, looked up)
chain: MKFLVKTQRGMESVAGNYIREALPNAEVWASPMGYSGLVIVETNDENAEEKILEIPEVERVIPVLVETNAELKEIEKAADEIASLISKDETFAVKTKRRGKHDFSSIDVNRVLGARIKEITDADVNLSWPDKVVQVEIIGDRAYISVLPGEEYRKYTPDKFDARKLFSKVTLVQMPYWGDYKACRKFGEKIGRAAQAFEVKELIIAPKEKMDAYELMEFLRGIKIGQESRYQIQREAYPWKVEKVPVSVWDLYQVVRDKRRNKRLLIITDPKGPTLAEVKEKLAKDMHYAKEVVIFIGSREGIPRGLFRFADYVVDLAPYMTFATEHGIPATLVSLWEVYEEFLRKSEEKAEDSS
notes: TK1257 gene product (TrmTS), tRNA 2'-O-methyltransferase of Thermococcus kodakarensis strain KUW1, 355 amino acids; NFLD, THUMP, linker and SPOUT domains; gene amplified from the ATG to the stop codons; Cloned between NdeI and BamHI of pET30a with its own stop codons; also called full-length TrmTS; wild-type TrmTS; source: E. coli BL21 (DE3) Rosetta 2, purified (75°C heat step, HiTrap Q HP, …)
B2: TrmTS (TK1257 gene product) (Thermococcus kodakarensis KOD1; K155A) (protein)
chain: B1 chain with K155A
B3: TrmTS (TK1257 gene product) (Thermococcus kodakarensis KOD1; E301A) (protein)
chain: B1 chain with E301A
B4: tRNA-Trp C6G-G67C transcript (G6-C67) (structured_RNA)
RNA: GGGGGGGUGGUGUAGCCUGGUCCAUCAUCGCGGGCUCCAGACCCGCGGACCGGGGUUCAAAUCCCCGCCCCCCCACCA

How the values were obtained:
[1] = target: SPOUT catalytic domain of TrmTS (lacks NFLD and THUMP domain, residues 2-151) (Thermococcus kodakarensis) (UniProt Q5JGM1); test: SEC; Superdex 200 10/300, room temperature; 150 ug truncated TrmTS heated at 50°C for 10 min, run in buffer C (50 mM Tris-HCl pH 8.0, 500 mM KCl, 300 mM ammonium sulfate); size standards 29-150 kDa
[2] = target: the molecule itself; test: SEC; Superdex 200 10/300, room temperature; 200 ug full-length TrmTS heated at 75°C for 10 min, then run in buffer SEC (50 mM sodium phosphate pH 8.0, 500 mM KCl, 6 mM 2-mercaptoethanol, 5% glycerol); sample buffer also held 0.1% Triton X-100; size standards 29-150 kDa
[3] = substrate: C[S+](CC[C@H](N)C(=O)O)C[C@H]1O[C@@H](n2cnc3c(N)ncnc32)[C@H](O)[C@@H]1O; test: purified protein; details: 35 μM T. kodakarensis tRNA-Trp transcript, 3 μM enzyme (not fully steady-state), 5 mM MgCl2, 300 mM KCl, pH 7.6, 75°C, mixture of unlabelled and 3H-labelled compound :1
[4] = target: T1, TrmTS (TK1257 gene product) (Thermococcus kodakarensis KUW1, UniProt Q5JGM1 1-355); test: competition (inhibition of methylation of wild-type tRNA-Trp transcript); SAM; competitor against wild-type tRNA-Trp transcript; Inhibition assay conditions (buffer, salt, pH, temperature) not given in the material; details: protein: recombinant; tags: none (untagged; native start and stop codons in pET30a); chain copies: 2; tRNA cloverleaf
T1 sequence: B1 chain

Molecule	Km [3]	further results
SPOUT catalytic domain of TrmTS (lacks NFLD and THUMP domain, residues 2-151) (from UniProt Q5JGM1 152-355) (domain or fragment)		stoichiometry N [1]: 2
B1	23 µM	stoichiometry N [2]: 4
B2	44 ± 7.6 µM	
B3	21 ± 5.1 µM	
B4		IC50 [4]: ~30 µM
